{
  "source": "patent US20050064507",
  "key": {"[1]": {"biological_target": "T1, p164-RhoGEF peptide PRLIRRGSKKRPAR (SEQ ID NO:82) (not fully specified)", "T1 chain": "PRLIRRGSKKRPAR"}, "[2]": {"biological_target": "T2, CREB1 peptide EILSRRPSYRKILND (SEQ ID NO:106) (not fully specified)", "T2 chain": "EILSRRPSYRKILND"}, "[3]": {"biological_target": "T3, pleckstrin 1 peptide KAIKAIEGGQKFARKSTRRS (SEQ ID NO:126) (not fully specified)", "T3 chain": "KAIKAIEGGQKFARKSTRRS"}, "[4]": {"biological_target": "T4, LIMK2 peptide KATTKKRTLRKNDRK (SEQ ID NO:108) (not fully specified)", "T4 chain": "KATTKKRTLRKNDRK"}, "[5]": {"biological_target": "T5, plectin peptide PLKEKKRERKTSSKSSVRKR (SEQ ID NO:125) (not fully specified)", "T5 chain": "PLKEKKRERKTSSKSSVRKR"}, "[6]": {"biological_target": "T6, p47phox peptide QAQRQIKRGAPPRRSSIRNA (SEQ ID NO:146) (not fully specified)", "T6 chain": "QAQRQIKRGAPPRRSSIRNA"}, "[7]": {"biological_target": "T7, beta adducin peptide KKKFRTPSFLKKSKK (SEQ ID NO:135) (not fully specified)", "T7 chain": "KKKFRTPSFLKKSKK"}, "[8]": {"biological_target": "T8, PSCD2 peptide AARKKRISVKKKQEQ (SEQ ID NO:93) (not fully specified)", "T8 chain": "AARKKRISVKKKQEQ"}, "[9]": {"biological_target": "T9, ERN1 peptide ISDFGLAKKLAVGRHSFSRR (SEQ ID NO:145) (not fully specified)", "T9 chain": "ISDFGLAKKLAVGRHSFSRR"}, "[10]": {"biological_target": "T10, PARIS1 peptide EYLERRASRRRAV (SEQ ID NO:138) (not fully specified)", "T10 chain": "EYLERRASRRRAV"}, "[11]": {"biological_target": "T11, dag kinase iota peptide PQNSLKASNRKKKRTSFKRK (SEQ ID NO:151) (not fully specified)", "T11 chain": "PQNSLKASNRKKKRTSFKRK"}, "[12]": {"biological_target": "T12, SPTBN4 peptide EGGDRRASGRRK (SEQ ID NO:110) (not fully specified)", "T12 chain": "EGGDRRASGRRK"}, "[13]": {"biological_target": "T13, NF1 peptide AGSFKRNSIKKIV (SEQ ID NO:102) (not fully specified)", "T13 chain": "AGSFKRNSIKKIV"}, "[14]": {"biological_target": "T14, ARHGAP6 peptide SAQITIPKDGQKRKKSLRKK (SEQ ID NO:156) (not fully specified)", "T14 chain": "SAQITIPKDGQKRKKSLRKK"}, "[15]": {"biological_target": "T15, MARCKS peptide PSPSNETPKKKKKRFSFKKS (SEQ ID NO:157) (not fully specified)", "T15 chain": "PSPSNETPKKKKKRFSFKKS"}, "[16]": {"biological_target": "T16, PARIS1 peptide EYLERRASRRRAV (SEQ ID NO:89) (not fully specified)", "T16 chain": "EYLERRASRRRAV"}, "[17]": {"biological_target": "T17, ERN1 peptide KLAVGRHSFSRRSGV (SEQ ID NO:94) (not fully specified)", "T17 chain": "KLAVGRHSFSRRSGV"}, "[18]": {"biological_target": "T18, M1 muscarinic receptor peptide RWDKRRWRKIPKRPGSVHRT (SEQ ID NO:155) (not fully specified)", "T18 chain": "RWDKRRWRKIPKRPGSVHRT"}, "[19]": {"biological_target": "T19, Urotensin-2 receptor peptide LYARLARAYRRSQRASFKRA (SEQ ID NO:159) (not fully specified)", "T19 chain": "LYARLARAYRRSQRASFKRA"}, "[20]": {"biological_target": "T20, nuclear RNA export factor 3 peptide VRYTPYTISPYNRKGSFRKQ (SEQ ID NO:143) (not fully specified)", "T20 chain": "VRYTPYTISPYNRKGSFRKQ"}, "[21]": {"biological_target": "T21, IDN3 peptide VRRRRSQRISQR (SEQ ID NO:172) (not fully specified)", "T21 chain": "VRRRRSQRISQR"}, "[22]": {"biological_target": "T22, PLEC1 peptide KRERKTSSKSSVRKRR (SEQ ID NO:81) (not fully specified)", "T22 chain": "KRERKTSSKSSVRKRR"}, "[23]": {"biological_target": "T23, ANK1 peptide AQIVKRASLKRGKQ (SEQ ID NO:90) (not fully specified)", "T23 chain": "AQIVKRASLKRGKQ"}, "[24]": {"biological_target": "T24, MacMARCKS peptide KKKFSFKKPFKLSGLSFKRN (SEQ ID NO:162) (not fully specified)", "T24 chain": "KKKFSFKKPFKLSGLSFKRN"}, "[25]": {"biological_target": "T25, pkc-zeta peptide GLPAPGEDKSIYRRGSRRWR (SEQ ID NO:167) (not fully specified)", "T25 chain": "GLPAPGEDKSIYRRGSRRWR"}, "[26]": {"biological_target": "T26, titin peptide PFEVVWYKDKRQLRSSKKYK (SEQ ID NO:160) (not fully specified)", "T26 chain": "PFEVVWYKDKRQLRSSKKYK"}, "[27]": {"biological_target": "T27, CDC2L5 peptide SRRRSPSYSRHS (SEQ ID NO:214) (not fully specified)", "T27 chain": "SRRRSPSYSRHS"}, "[28]": {"biological_target": "T28, MARCKS peptide KKRFSFKKSFKLSGFSFKKN (SEQ ID NO:119) (not fully specified)", "T28 chain": "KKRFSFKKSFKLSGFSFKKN"}, "[29]": {"biological_target": "T29, PPP1R14A peptide QKRHARVTVKYDRRE (SEQ ID NO:107) (not fully specified)", "T29 chain": "QKRHARVTVKYDRRE"}, "[30]": {"biological_target": "T30, PARIS1 peptide RELEQLKAEYLERRASRRRA (SEQ ID NO:148) (not fully specified)", "T30 chain": "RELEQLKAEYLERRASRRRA"}, "[31]": {"biological_target": "T31, PKD1 peptide RVVQSVKHTKRKSSTVMK (SEQ ID NO:149) (not fully specified)", "T31 chain": "RVVQSVKHTKRKSSTVMK"}},
  "data": [
    {"protein": "PKC-theta (protein) MSPFLRIGLSNFDCGSCQSCQGEAVNPYCAVLVKEYVESENGQMYIQKKPTMYPPWDSTFDAHINKGRVMQIIVKGKNVDLISETTVELYSLAERCRKNNGKTEIWLELKPQGRMLMNARYFLEMSDTKDMNEFETEGFFALHQRRGAIKQAKVHHVKCHEFTATFFPQPTFCSVCHEFVWGLNKQGYQCRQCNAAIHKKCIDKVIAKCTGSAINSRETMFHKERFKIDMPHRFKVYNYKSPTFCEHCGTLLWGLARQGLKCDACGMNVHHRCQTKVANLCGINQKLMAEALAMIESTQQARCLRDTEQIFREGPVEIGLPCSIKNEARPPCLPTPGKREPQGISWESPLDEVDKMCHLPEPELNKERPSLQIKLKIEDFILHKMLGKGSFGKVFLAEFKKTNQFFAIKALKKDVVLMDDDVECTMVEKRVLSLAWEHPFLTHMFCTFQTKENLFFVMEYLNGGDLMYHIQSCHKFDLSRATFYAAEIILGLQFLHSKGIVYRDLKLDNILLDKDGHIKIADFGMCKENMLGDAKTNTFCGTPDYIAPEILLGQKYNHSVDWWSFGVLLYEMLIGQSPFHGQDEEELFHSIRMDNPFYPRWLEKEAKDLLVKLFVREPEKRLGVRGDIRQHPLFREINWEELERKEIDPPFRPKVKSPFDCSNFDKEFLNEKPRLSFADRALINSMDQNMFRNFSFMNPGMERLIS", "values": [
      {"measurement": "in vitro phosphorylation (% of best substrate)", "setting": "[1]", "value": 49},
      {"measurement": "in vitro phosphorylation (% of best substrate)", "setting": "[2]", "value": 19},
      {"measurement": "in vitro phosphorylation, 1 uM peptide (% of best substrate)", "setting": "[3]", "value": 46},
      {"measurement": "in vitro phosphorylation, 10 uM peptide (% of best substrate)", "setting": "[3]", "value": 45},
      {"measurement": "in vitro phosphorylation (% of best substrate)", "setting": "[4]", "value": 32},
      {"measurement": "in vitro phosphorylation, 1 uM peptide (% of best substrate)", "setting": "[5]", "value": 39},
      {"measurement": "in vitro phosphorylation, 10 uM peptide (% of best substrate)", "setting": "[5]", "value": 100},
      {"measurement": "in vitro phosphorylation, 1 uM peptide (% of best substrate)", "setting": "[6]", "value": 33},
      {"measurement": "in vitro phosphorylation, 10 uM peptide (% of best substrate)", "setting": "[6]", "value": 34},
      {"measurement": "in vitro phosphorylation, 1 uM peptide (% of best substrate)", "setting": "[7]", "value": 30},
      {"measurement": "in vitro phosphorylation, 10 uM peptide (% of best substrate)", "setting": "[7]", "value": 36},
      {"measurement": "in vitro phosphorylation (% of best substrate)", "setting": "[8]", "value": 40},
      {"measurement": "in vitro phosphorylation, 1 uM peptide (% of best substrate)", "setting": "[9]", "value": 27},
      {"measurement": "in vitro phosphorylation, 10 uM peptide (% of best substrate)", "setting": "[9]", "value": 25},
      {"measurement": "in vitro phosphorylation, 1 uM peptide (% of best substrate)", "setting": "[10]", "value": 34},
      {"measurement": "in vitro phosphorylation, 10 uM peptide (% of best substrate)", "setting": "[10]", "value": 39},
      {"measurement": "in vitro phosphorylation, 1 uM peptide (% of best substrate)", "setting": "[11]", "value": 25},
      {"measurement": "in vitro phosphorylation, 10 uM peptide (% of best substrate)", "setting": "[11]", "value": 19},
      {"measurement": "in vitro phosphorylation (% of best substrate)", "setting": "[12]", "value": 22},
      {"measurement": "in vitro phosphorylation (% of best substrate)", "setting": "[13]", "value": 28},
      {"measurement": "in vitro phosphorylation, 1 uM peptide (% of best substrate)", "setting": "[14]", "value": 18},
      {"measurement": "in vitro phosphorylation, 10 uM peptide (% of best substrate)", "setting": "[14]", "value": 23},
      {"measurement": "in vitro phosphorylation, 1 uM peptide (% of best substrate)", "setting": "[15]", "value": 20},
      {"measurement": "in vitro phosphorylation, 10 uM peptide (% of best substrate)", "setting": "[15]", "value": 23},
      {"measurement": "in vitro phosphorylation (% of best substrate)", "setting": "[16]", "value": 60},
      {"measurement": "in vitro phosphorylation (% of best substrate)", "setting": "[17]", "value": 86},
      {"measurement": "in vitro phosphorylation, 1 uM peptide (% of best substrate)", "setting": "[18]", "value": 23},
      {"measurement": "in vitro phosphorylation, 10 uM peptide (% of best substrate)", "setting": "[18]", "value": 26},
      {"measurement": "in vitro phosphorylation, 1 uM peptide (% of best substrate)", "setting": "[19]", "value": 21},
      {"measurement": "in vitro phosphorylation, 10 uM peptide (% of best substrate)", "setting": "[19]", "value": 17},
      {"measurement": "in vitro phosphorylation, 1 uM peptide (% of best substrate)", "setting": "[20]", "value": 25},
      {"measurement": "in vitro phosphorylation, 10 uM peptide (% of best substrate)", "setting": "[20]", "value": 27},
      {"measurement": "in vitro phosphorylation (% of best substrate)", "setting": "[21]", "value": 86},
      {"measurement": "in vitro phosphorylation (% of best substrate)", "setting": "[22]", "value": 46},
      {"measurement": "in vitro phosphorylation (% of best substrate)", "setting": "[23]", "value": 38},
      {"measurement": "in vitro phosphorylation, 1 uM peptide (% of best substrate)", "setting": "[24]", "value": 14},
      {"measurement": "in vitro phosphorylation, 10 uM peptide (% of best substrate)", "setting": "[24]", "value": 13},
      {"measurement": "in vitro phosphorylation, 1 uM peptide (% of best substrate)", "setting": "[25]", "value": 12},
      {"measurement": "in vitro phosphorylation, 10 uM peptide (% of best substrate)", "setting": "[25]", "value": 14},
      {"measurement": "in vitro phosphorylation, 1 uM peptide (% of best substrate)", "setting": "[26]", "value": 19},
      {"measurement": "in vitro phosphorylation, 10 uM peptide (% of best substrate)", "setting": "[26]", "value": 25},
      {"measurement": "in vitro phosphorylation (% of best substrate)", "setting": "[27]", "value": 13},
      {"measurement": "in vitro phosphorylation, 1 uM peptide (% of best substrate)", "setting": "[28]", "value": 69},
      {"measurement": "in vitro phosphorylation, 10 uM peptide (% of best substrate)", "setting": "[28]", "value": 28},
      {"measurement": "in vitro phosphorylation (% of best substrate)", "setting": "[29]", "value": 40},
      {"measurement": "in vitro phosphorylation, 1 uM peptide (% of best substrate)", "setting": "[30]", "value": 34},
      {"measurement": "in vitro phosphorylation, 10 uM peptide (% of best substrate)", "setting": "[30]", "value": 34},
      {"measurement": "in vitro phosphorylation, 1 uM peptide (% of best substrate)", "setting": "[31]", "value": 13},
      {"measurement": "in vitro phosphorylation, 10 uM peptide (% of best substrate)", "setting": "[31]", "value": 14}
    ]}
  ]
}
